Measurements published in FireProtDB (doi:10.1021/bi990893b).

Details: Bos taurus; pH 7; Thermal; Absorbance; Sodium phosphate 100 mM; whole UniProt chain shown

B1: Cytochrome b5 wild type, P00171 (protein)
chain: MAEESSKAVKYYTLEEIQKHNNSKSTWLILHYKVYDLTKFLEEHPGGEEVLREQAGGDATENFEDVGHSTDARELSKTFIIGELHPDDRSKITKPSESIITTIDSNPSWWTNWLIPAISALFVALIYHLYTSEN
  Tm: 67.2 °C
  unfolding enthalpy (van 't Hoff): 398 kJ/mol
